Experimental data from publication PMC8740826 (Protein Science : A Publication of the Protein Society, 2021).
Like-named read-outs stand apart in the source and are kept apart here.

Experiments:
SEC-SAXS [1] = molecular target: the molecule itself; test: SEC-SAXS
SEC-SAXS [2] = molecular target: the molecule itself; test: SEC-SAXS; remark: listed apart in the source

B1: β-amylase from sweet potato (enzyme)
chain: APIPGVMPIGNYVSLYVMLPLGVVNADNVFPDKEKVEDELKQVKAGGCDGVMVDVWWGIIEAKGPKQYDWSAYRELFQLVKKCGLKIQAIMSFHQCGGNVGDAVFIPIPQWILQIGDKNPDIFYTNRAGNRNQEYLSLGVDNQRLFQGRTALEMYRDFMESFRDNMADFLKAGDIVDIEVGCGAAGELRYPSYPETQGWVFPGIGEFQCYDKYMVADWKEAVKQAGNADWEMPGKGAGTYNDTPDKTEFFRPNGTYKTDMGKFFLTWYSNKLIIHGDQVLEEANKVFVGLRVNIAAKVSGIHWWYNHVSHAAELTAGFYNVAGRDGYRPIARMLARHHATLNFTCLEMRDSEQPAEAKSAPQELVQQVLSSGWKEYIDVAGENALPRYDATAYNQMLLNVRPNGVNLNGPPKLKMSGLTYLRLSDDLLQTDNFELFKKFVKKMHADLDPSPNAISPAVLERSNSAITIDELMEATKGSRPFPWYDVTDMPVDGSNPFD
stoichiometry N (SEC-SAXS [1]): 4

B2: glucose isomerase from Streptomyces rubiginosus (enzyme)
chain: not shown
stoichiometry N (SEC-SAXS [2]): 4
